From publication PMC9755798, “Transcription factor CsESE3 positively modulates both jasmonic acid and wax biosynthesis in citrus” come the findings set out here.

The target of data set [1] is T1, CsESE3 (Citrus sinensis? ('Newhall' navel …, UniProt A0ACB8NL77 1-192)). As to the kind of experiment: EMSA; shift attenuated by excess (up to 28x) cold probe; EMSA as in Gong et al. 2021b; buffer, salt, pH and temperature not given; 5' FAM probes, 100 uM unlabeled competitor stocks, 7x/14x/28x excess. Particulars: protein: recombinant; tags: N-terminal His (pETDuet); label: 5' FAM (top strand); blunt.

For data set [2], the target named is T1, CsESE3. As to the kind of experiment: EMSA; EMSA as in Gong et al. 2021b; buffer, salt, pH and temperature not given; 5' FAM probes, 100 uM unlabeled competitor stocks, 7x/14x/28x excess. Particulars: protein: recombinant; tags: N-terminal His (pETDuet); label: 5' FAM (top strand); blunt.

T1 sequence (A0ACB8NL77 entry or part of it): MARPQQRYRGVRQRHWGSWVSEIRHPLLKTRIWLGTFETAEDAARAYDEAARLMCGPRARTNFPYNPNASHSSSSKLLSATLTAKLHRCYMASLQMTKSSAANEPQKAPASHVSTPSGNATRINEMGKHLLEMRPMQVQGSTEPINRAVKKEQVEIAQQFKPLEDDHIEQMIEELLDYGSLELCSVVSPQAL

B1: Probe_PLIP (CsPLIP1 promoter GCC-box) (dsDNA)
DNA 1: GAGCCTCACTAGCCGCCATTGTCCCCG
DNA 2: CGGGGACAATGGCGGCTAGTGAGGCTC
Turning to B1, in the data set with CsESE3 [1], the binding result was “binds”.

B2: Probe_PLIP_Like (CsPLIP_Like promoter GCC-box) (dsDNA)
DNA 1: AAATAAACTAAGCCGCCTTGTCATATT
DNA 2: AATATGACAAGGCGGCTTAGTTTATTT
As to B2, in the data set with CsESE3 [2], the binding result is “binds”.
